Experimental data published in patent US9155795B2, “CXCR4 receptor compounds” (Anchor Therapeutics, Inc., priority 2010, dated 2015).
Where a SMILES comes first, the peptide text is derived from it. Where no end group is shown, it is not given here. [ ]: non-standard residue; d: D form. The star is where a group is joined. Hexadecanesulfonyl = CCCCCCCCCCCCCCCCS(=O)(=O)*

Tests used:
CXCR4 [1] = molecular target: T1, CXCR4 (Homo sapiens, UniProt P61073); assay: CXCR4 chemotaxis assay (Transwell, CCRF-CEM cells); format: cell-based; conditions: DMSO vehicle
T1 construct: CCRF-CEM cells, a human T-cell ALL line that endogenously expresses CXCR4; endogenous in cells; host or cells: CCRF-CEM (human T-cell acute lymphoblastic leukemia line)
Description: Chemotaxis assays are utilized to determine the effect of compound on the directed migration of cells in response to chemokine. In general, cells that express a receptor of interest are placed in the upper chamber of a Transwell chemotaxis plate (Corning) and allowed to migrate through a polycarbonate membrane to a lower chamber containing the appropriate receptor-specific ligand. To test for antagonist or potentiating activity, cells are mixed with the desired concentration of compound prior to addition to the upper chamber. Conversely, agonist activity is determined by adding compound in the bottom chamber only without endogenous chemokine. The effect of compound is quantified by several parameters, including the extent of maximum response, the shift of agonist dose-response curves, and the area under the curve.
To measure the CXCR4 test compound elicited CXCR4-dependent migration of cells, the appropriate concentration of control agonist CXCL12 or test compound is diluted in phenol red-free RMPI-1640/20 mM HEPES/0.5% BSA buffer and placed in the bottom chamber of a transwell apparatus. CCRF-CEM cells, a human T-cell ALL line that endogenously expresses CXCR4, are washed twice in buffer and resuspended at 133,000 cells/ml. A 75 μl sample of the cell suspension is mixed with the test compound of interest and placed in the upper chamber of a 5-micron transwell apparatus.
To measure the effect of test compound on CXCL12 elicited CXCR4-dependent migration of cells, the appropriate concentration of CXCL12 is diluted in phenol red-free RMPI-1640/20 mM HEPES/0.5% BSA buffer and placed in the bottom chamber of a transwell apparatus. CCRF-CEM cells, a human T-cell ALL line that endogenously expresses CXCR4, are washed twice in buffer and resuspended at 133,000 cells/ml. A 75 μl sample of this suspension is mixed with the test compound of interest and placed in the upper chamber of a 5-micron transwell apparatus.
To initiate cell migration, the assembled transwell plate is placed in a 37° C., […] incubator for a specified time interval, typically between 30 and 120 minutes. After incubation, the unit is disassembled and the lower chamber placed at −80° C. overnight to facilitate lysis of cells. To quantify migrated cells, plates are thawed at 37° C. in a humidified chamber, and then a sample volume is removed from each well and mixed with an equal volume of CyQuant (Invitrogen) working solution in opaque plates. The fluorescence intensity of each well represents the DNA content and is directly proportional to cell number. Each sample is typically run in duplicate or triplicate and each plate include two separate negative controls. The plate background control, which includes no cells in the upper chamber, is subtracted from all values. […]

CXCR4 [2] = molecular target: T1, CXCR4; assay: Calcium flux assay, agonist mode, FLIPR (CCRF-CEM cells); format: cell-based; conditions: percent of maximum response compared with SDF-1α, read-out: % Intrinsic Activity
Experimental: The calcium flux assay was used to assess the test compounds' ability to activate the CXCR4 receptor in CCRF-CEM cells (human T lymphoblasts from acute lymphoblastic leukemia). […] After dye loading by incubating with Calcium-4 dye at 37° C. for 1 hour, cell plates were read at 37° C. using the Fluorescent Imaging Plate Reader (FLIPR). Receptor activation was assessed by measuring changes in fluorescent intensity after the addition of the test compounds or the reference agonist SDF-1α on the FLIPR.

T1 sequence (P61073 whole entry): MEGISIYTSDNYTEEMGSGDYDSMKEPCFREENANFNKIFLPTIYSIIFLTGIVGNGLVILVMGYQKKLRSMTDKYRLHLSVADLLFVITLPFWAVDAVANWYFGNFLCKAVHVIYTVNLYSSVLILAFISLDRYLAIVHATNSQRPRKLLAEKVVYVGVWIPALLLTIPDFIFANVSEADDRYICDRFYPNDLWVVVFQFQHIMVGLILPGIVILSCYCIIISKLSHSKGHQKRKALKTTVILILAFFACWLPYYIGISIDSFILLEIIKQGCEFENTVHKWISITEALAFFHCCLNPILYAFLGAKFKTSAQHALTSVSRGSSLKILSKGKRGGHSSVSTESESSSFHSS

Compound	AUC (% of Vehicle) (CXCR4 [1])	Max (% of Vehicle) (CXCR4 [1])	Emax (CXCR4 [2]) [%]
43: i3 loop peptide SKLSHSKGHQKRKALKTTVIL (SEQ ID NO: 39), lipid Pal (also: lipid Pal attached, position not given here) [Compound 43]	226.59 % of Vehicle	202.16 % of Vehicle	
44: i4 loop peptide GAKFKTSAQHALTSVR (SEQ ID NO: 40), lipid Pal (also: lipid Pal attached, position not given here) [Compound 44]	56.75 % of Vehicle	56.7 % of Vehicle	
CCCCCCCCCCCCCCCCS(=O)(=O)NCC(=O)NCC(=O)N[C@@H](Cc1ccc(O)cc1)C(=O)N[C@@H](CCC(N)=O)C(=O)N[C@@H](CCCCN)C(=O)N[C@@H](CCCCN)C(=O)N[C@@H](CC(C)C)C(=O)N[C@@H](CCCNC(=N)N)C(=O)N1CCC[C@@H]1C(=O)N[C@@H](Cc1c[nH]cn1)C(=O)N[C@H](C(=O)N[C@@H](CC(=O)O)C(=O)N[C@@H](CCCCN)C(=O)N[C@@H](Cc1ccc(O)cc1)C(=O)N[C@@H](CCCNC(=N)N)C(=O)N[C@@H](CC(C)C)C(N)=O)[C@@H](C)O [Compound 46, CH3(CH2)15SO2— GGYQKKLRpHTDKYRL-amide] (Hexadecanesulfonyl-GGYQKKLR[dP]HTDKYRL-NH2)			107
